Assay results reported in patent publication US20250064952A1 (ACCELERON PHARMA, published 2025).

Assays:
ActRIIA-mFc = biological target: T1, ActRIIA-mFc (human, UniProt P27037 20-135); assay: similar Biacore binding assay
T1 construct: extracellular domain; not shown: minimal linker, not specified for the mouse construct
Method: GDF11 or activin A were immobilized on a Biacore™ CMS chip using standard amine-coupling procedure. ActRIIA-hFc and ActRIIA-mFc proteins were loaded onto the system, and binding was measured. […] See FIG. 15A-B. Using a similar binding assay, ActRIIA-hFc was determined to have high to moderate affinity for other TGF-beta superfamily ligands including, for example, activin B, GDF8, BMP6, and BMP10. ActRIIA-mFc behaved similarly.

ActRIIB-Fc homodimer [1] = biological target: T2, ActRIIB-Fc homodimer (human, UniProt Q13705 19-137); assay: SPR (Biacore), anti-Fc capture, ligand in flow
T2 construct: extracellular domain; also called unmodified ActRIIB-Fc homodimer; ActRIIB-Fc:ActRIIB-Fc homodimer
T2 sequence (looked up): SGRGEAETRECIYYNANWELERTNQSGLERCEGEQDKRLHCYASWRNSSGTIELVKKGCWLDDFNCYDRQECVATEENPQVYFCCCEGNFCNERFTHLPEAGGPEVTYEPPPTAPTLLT
Method: A Biacore™-based binding assay was used to compare ligand binding selectivity of the ActRIIB-Fc:ALK4-Fc heterodimeric complex described above with that of ActRIIB-Fc and ALK4-Fc homodimer complexes. The ActRIIB-Fc:ALK4-Fc heterodimer, ActRIIB-Fc homodimer, and ALK4-Fc homodimer were independently captured onto the system using an anti-Fc antibody. Ligands were injected and allowed to flow over the captured receptor protein. Results are summarized in the table below, in which ligand off-rates (kd) most indicative of effective ligand traps are denoted by bold font.

ActRIIB-Fc homodimer [2] = biological target: T2, ActRIIB-Fc homodimer; assay: SPR (Biacore), anti-Fc capture, ligand in flow; remark: listed apart in the source
Method: A Biacore™-based binding assay was used to compare ligand binding selectivity of the ActRIIB-Fc:ALK7-Fc heterodimeric complex described above with that of ActRIIB-Fc and ALK7-Fc homodimeric complexes. The ActRIIB-Fc:ALK7-Fc heterodimer, ActRIIB-Fc homodimer, and ALK7-Fc homodimer were independently captured onto the system using an anti-Fc antibody. Ligands were injected and allowed to flow over the captured receptor protein. Results are summarized in the table below, in which ligand off-rates (kd) most indicative of effective ligand traps are denoted by bold font.

ActRIIB-Fc homodimer [3] = biological target: T2, ActRIIB-Fc homodimer; assay: SPR (Biacore), 37 C, anti-Fc capture, ligand in flow
Method: A Biacore™-based binding assay was used to compare the ligand binding kinetics of an ActRIIB-Fc:ActRIIB(L79E)-Fc heterodimer with those of unmodified ActRIIB-Fc homodimer. Fusion proteins were captured onto the system using an anti-Fc antibody. Ligands were then injected and allowed to flow over the captured receptor protein at 37° C. Results are summarized in the table below, in which ligand off-rates (kd) most indicative of effective ligand traps are denoted in bold.

T1 sequence (P27037 20-135): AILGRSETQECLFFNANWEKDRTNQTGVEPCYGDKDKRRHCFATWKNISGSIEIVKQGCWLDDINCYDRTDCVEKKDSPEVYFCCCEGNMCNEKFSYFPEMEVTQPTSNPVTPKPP

B1: activin B (ligand, UniProt P09529 293-407, looked up)
chain: GLECDGRTNLCCRQQFFIDFRLIGWNDWIIAPTGYYGNYCEGSCPAYLAGVPGSASSFHTAVVNQYRMRGLNPGTVNSCCIPTKLSTMSMLYFDDEYNIVKRDVPNMIVEECGCA
ActRIIA-mFc
  binding result: binds
ActRIIB-Fc homodimer [1]
  Kd: 20 pM
  koff: 0.0001 s⁻¹
  kon: 5.1e+06 M⁻¹ s⁻¹
ActRIIB-Fc homodimer [2]
  Kd: 8 pM
  koff: 0.00016 s⁻¹
  kon: 1.5e+07 M⁻¹ s⁻¹
ActRIIB-Fc homodimer [3]
  Kd: 8 pM
  koff: 6.6e-05 s⁻¹
  kon: 8.1e+06 M⁻¹ s⁻¹
